{
  "source": "paper PMC4374139",
  "key": {"TopBP1 [1]": {"target": "TopBP1 (UniProt Q92547)", "assay": "biotin-peptide streptavidin pull-down from nuclear extract", "conditions": "reference: nonphosphorylated peptide; sites S304"}, "[2]": {"target": "TopBP1 BRCT domains 4 and 5 (UniProt Q92547)", "assay": "biotin-peptide pull-down of purified GST-BRCT4-5", "conditions": "reference: nonphosphorylated peptide; sites S304"}, "TopBP1 BRCT5 [3]": {"target": "TopBP1 BRCT5 (UniProt Q92547)", "assay": "biotin-peptide (Ser304) pull-down of purified GST-BRCT5", "conditions": "reference: nonphosphorylated Ser304 peptide; sites S304"}, "TopBP1 [4]": {"target": "TopBP1 (UniProt Q92547)", "assay": "GFP-BLM pull-down, western blot", "conditions": "reference: wild type; sites S304"}, "TopBP1 BRCT5 [5]": {"target": "TopBP1 BRCT5 (UniProt Q92547)", "assay": "GST-BRCT5 pull-down of SFB-BLM from lysate", "conditions": "reference: wild type; sites S304"}, "TopBP1 [6]": {"target": "TopBP1 (UniProt Q92547)", "assay": "GFP-BLM pull-down, western blot", "conditions": "reference: wild type; sites S304", "remark": "listed apart in the source"}, "TopBP1 [7]": {"target": "TopBP1 (UniProt Q92547)", "assay": "GFP-BLM pull-down, western blot", "conditions": "reference: wild type; sites S304", "remark": "listed apart in the source"}},
  "data": [
    {"substance": "BLM 297-311 (from UniProt P54132) pS304 peptide", "values": [
      {"measurement": "binding against the reference", "setting": "TopBP1 [1]", "result": "gained"},
      {"measurement": "binding against the reference", "setting": "[2]", "result": "gained"}
    ]},
    {"substance": "BLM (from UniProt P54132) pS304 peptide", "values": [
      {"measurement": "binding against the reference", "setting": "TopBP1 BRCT5 [3]", "result": "gained"}
    ]},
    {"substance": "BLM (from UniProt P54132) S304A", "values": [
      {"measurement": "binding against the reference", "setting": "TopBP1 [4]", "result": "lost"},
      {"measurement": "binding against the reference", "setting": "TopBP1 BRCT5 [5]", "result": "weaker"},
      {"measurement": "binding against the reference", "setting": "TopBP1 [6]", "result": "weaker"},
      {"measurement": "binding against the reference", "setting": "TopBP1 [7]", "result": "weaker"}
    ]}
  ]
}
